Reference: patent US20260216242A1 (ALMAC DISCOVERY, published 2026)
Substitutions are numbered along the chain they refer to. In names and notes the source's numbering stands. Blank lines part the entries; values can stand above or below the binder they belong to.

Molecular target: T1, Human ALPP (leucine zipper) (human)
T1 construct: Soluble human ALPP fused to a disulphide stabilised leucine zipper and a His tag; The whole entry is the construct; also called hALPP; PLAP
T1 chain: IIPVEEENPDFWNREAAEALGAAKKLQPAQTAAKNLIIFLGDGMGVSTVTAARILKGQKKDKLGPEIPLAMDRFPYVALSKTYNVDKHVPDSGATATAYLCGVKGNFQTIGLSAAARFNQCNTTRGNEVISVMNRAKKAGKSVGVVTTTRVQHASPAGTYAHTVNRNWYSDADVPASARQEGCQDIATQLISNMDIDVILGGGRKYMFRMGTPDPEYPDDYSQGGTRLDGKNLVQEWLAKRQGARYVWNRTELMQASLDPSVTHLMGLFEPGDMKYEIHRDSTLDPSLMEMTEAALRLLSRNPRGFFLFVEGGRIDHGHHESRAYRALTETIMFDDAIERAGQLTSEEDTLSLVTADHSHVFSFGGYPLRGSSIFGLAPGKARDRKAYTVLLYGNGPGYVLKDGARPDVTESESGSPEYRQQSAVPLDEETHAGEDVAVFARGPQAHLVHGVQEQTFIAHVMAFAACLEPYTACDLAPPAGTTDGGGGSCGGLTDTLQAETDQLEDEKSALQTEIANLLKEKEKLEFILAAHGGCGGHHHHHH
Experiment: BLI, KD app (antigen immobilised on AR2G sensor)
Description: Binding kinetics were determined using the Biolayer Interferometry (BLI) Octet K2 or R4 system (Sartorius). […] For KD apparent measurements, the ALPP proteins were immobilised in sodium acetate pH5 buffer to AR2G sensors using amine coupling. To measure 1:1 interactions, AHC biosensors were used to immobilise Fc-fused proteins. All assays were conducted in HBS-EP with a plate temperature of 25° C. Ka (M⁻¹s⁻¹), Kd (s⁻¹) and KD (nM) values were determined using Octet Data Analysis High Throughput software (Sartorius) for Biolayer Interferometry.

B3: A06 E10-hFc (S239C + S442C), [G4S]1 linkers (Fc fusion)
chain 1: QVHLVESGGGLVQAGGSLRLSCAASGRTFLSMGWFRQAPGKEREFVAAISWTGGSTGYADSVKGRFTISRESDKETMYLQMNSLKPEDTAVYYCAARGDVYYGGDDATRYKYWGQGTQVTVSSGGGGSEPKSSDKTHTCPPCPAPELLGGPCVFLFPPKPKDTLMISRTPEVTCVVVDVSHEDPEVKFNWYVDGVEVHNAKTKPREEQYNSTYRVVSVLTVLHQDWLNGKEYKCKVSNKALPAPIEKTISKAKGQPREPQVYTLPPSRDELTKNQVSLYCLVKGFYPSDIAVEWESNGQPENNYKTTPPVLDSDGSFFLYSKLTVDKSRWQQGNVFSCSVMHEALHNHYTQKSLCLSPGK
chain 2: QVQLVESGGGLVQAGGSLRLSCAVSGRALSDYNIGWFRQAPGKEREFVARKTWDGSSTRYDDSVKGRFTVSIEDAKNTAYLQMSSLKTEDTAVYYCAAGRYSRARGWEYDYWGQGTQVTVSSGGGGSEPKSSDKTHTCPPCPAPELLGGPCVFLFPPKPKDTLMISRTPEVTCVVVDVSHEDPEVKFNWYVDGVEVHNAKTKPREEQYNSTYRVVSVLTVLHQDWLNGKEYKCKVSNKALPAPIEKTISKAKGQPREPQVYTLPPSRDELTKNQVSLTCLVKGFYPSDIAVEWESNGQPENNYKTTPPVLDSDGSFFLTSKLTVDKSRWQQGNVFSCSVMHEALHNHYTQKSLCLSPGK
notes: Biparatopic heterodimer
kon: 516000 M⁻¹ s⁻¹

B4: A06 E06-hFc (S239C + S442C), [G4S]1 linkers (Fc fusion)
chain 1: B3 chain 1
chain 2: QVHLVESGGGLVQAGGSLRLSCAASRRSFSEYAMGWFRQAPGKEREFVAAIGWSGVIEYADSVKGRFTISRDNAKDTVYLQMNSLKPEDTAVYYCAAGLGIRVVSQTPAYWGQGTQVTVSSGGGGSEPKSSDKTHTCPPCPAPELLGGPCVFLFPPKPKDTLMISRTPEVTCVVVDVSHEDPEVKFNWYVDGVEVHNAKTKPREEQYNSTYRVVSVLTVLHQDWLNGKEYKCKVSNKALPAPIEKTISKAKGQPREPQVYTLPPSRDELTKNQVSLTCLVKGFYPSDIAVEWESNGQPENNYKTTPPVLDSDGSFFLTSKLTVDKSRWQQGNVFSCSVMHEALHNHYTQKSLCLSPGK
notes: Biparatopic heterodimer; also called #671
Kd: 0.0202 nM
kon: 602000 M⁻¹ s⁻¹

B5: D10 E10-hFc (S239C + S442C), [G4S]1 linkers (Fc fusion)
chain 1: QVQLVESGGGLVQPGGSLRLSCAASGSIFSVNTMGWYRQAPGKQRDLVAVATSGGTIHYADSVKGRFTISRDNAKNTVYLQMNSLKPEDTAVYYCNLVVPYGMIAGDHDYWGQGTKVTVSSGGGGSEPKSSDKTHTCPPCPAPELLGGPCVFLFPPKPKDTLMISRTPEVTCVVVDVSHEDPEVKFNWYVDGVEVHNAKTKPREEQYNSTYRVVSVLTVLHQDWLNGKEYKCKVSNKALPAPIEKTISKAKGQPREPQVYTLPPSRDELTKNQVSLYCLVKGFYPSDIAVEWESNGQPENNYKTTPPVLDSDGSFFLYSKLTVDKSRWQQGNVFSCSVMHEALHNHYTQKSLCLSPGK
chain 2: B3 chain 2
notes: Biparatopic heterodimer; also called #668
Kd: < 0.01 nM
kon: 374000 M⁻¹ s⁻¹

B6: D10 E10-hFc (S239C + S442C), mixed linkers (D10 - [G4S]1, E10 - [G4S]3) (Fc fusion)
chain 1: B5 chain 1
chain 2: QVQLVESGGGLVQAGGSLRLSCAVSGRALSDYNIGWFRQAPGKEREFVARKTWDGSSTRYDDSVKGRFTVSIEDAKNTAYLQMSSLKTEDTAVYYCAAGRYSRARGWEYDYWGQGTQVTVSSGGGGSGGGGSGGGGSEPKSSDKTHTCPPCPAPELLGGPCVFLFPPKPKDTLMISRTPEVTCVVVDVSHEDPEVKFNWYVDGVEVHNAKTKPREEQYNSTYRVVSVLTVLHQDWLNGKEYKCKVSNKALPAPIEKTISKAKGQPREPQVYTLPPSRDELTKNQVSLTCLVKGFYPSDIAVEWESNGQPENNYKTTPPVLDSDGSFFLTSKLTVDKSRWQQGNVFSCSVMHEALHNHYTQKSLCLSPGK
notes: Biparatopic heterodimer; also called #704
Kd: < 0.01 nM
kon: 385000 M⁻¹ s⁻¹

B7: D10 A06-hFc (S239C + S442C), mixed linkers (D10 - [G4S]1, A06 - [G4S]3) (Fc fusion)
chain 1: B5 chain 1
chain 2: QVHLVESGGGLVQAGGSLRLSCAASGRTFLSMGWFRQAPGKEREFVAAISWTGGSTGYADSVKGRFTISRESDKETMYLQMNSLKPEDTAVYYCAARGDVYYGGDDATRYKYWGQGTQVTVSSGGGGSGGGGSGGGGSEPKSSDKTHTCPPCPAPELLGGPCVFLFPPKPKDTLMISRTPEVTCVVVDVSHEDPEVKFNWYVDGVEVHNAKTKPREEQYNSTYRVVSVLTVLHQDWLNGKEYKCKVSNKALPAPIEKTISKAKGQPREPQVYTLPPSRDELTKNQVSLTCLVKGFYPSDIAVEWESNGQPENNYKTTPPVLDSDGSFFLTSKLTVDKSRWQQGNVFSCSVMHEALHNHYTQKSLCLSPGK
notes: Biparatopic heterodimer; also called #702
Kd: < 0.01 nM
kon: 343000 M⁻¹ s⁻¹

B11: A06 F05-hFc (S239C + S442C), [G4S]1 linkers (Fc fusion)
chain 1: B3 chain 1
chain 2: B3 chain 2 with V24A, L29F, S30G, K51R, E73D, D74N, S84N, A104V
kon: 422000 M⁻¹ s⁻¹

Continued, values first:

Kd: < 0.01 nM
kon: 332000 M⁻¹ s⁻¹
B1: D10 A06-hFc (S239C + S442C), [G4S]1 linkers (Fc fusion)
chain 1: B5 chain 1
chain 2: B3 chain 1 with Y279T, Y320T
notes: Biparatopic heterodimer; also called #666

Kd: 0.11 nM
kon: 465000 M⁻¹ s⁻¹
B2: D10 E06-hFc (S239C + S442C), mixed linkers (D10 - [G4S]1, E06 - [G4S]3) (Fc fusion)
chain 1: B5 chain 1
chain 2: QVHLVESGGGLVQAGGSLRLSCAASRRSFSEYAMGWFRQAPGKEREFVAAIGWSGVIEYADSVKGRFTISRDNAKDTVYLQMNSLKPEDTAVYYCAAGLGIRVVSQTPAYWGQGTQVTVSSGGGGSGGGGSGGGGSEPKSSDKTHTCPPCPAPELLGGPCVFLFPPKPKDTLMISRTPEVTCVVVDVSHEDPEVKFNWYVDGVEVHNAKTKPREEQYNSTYRVVSVLTVLHQDWLNGKEYKCKVSNKALPAPIEKTISKAKGQPREPQVYTLPPSRDELTKNQVSLTCLVKGFYPSDIAVEWESNGQPENNYKTTPPVLDSDGSFFLTSKLTVDKSRWQQGNVFSCSVMHEALHNHYTQKSLCLSPGK
notes: Biparatopic heterodimer; also called #703

Kd: < 0.01 nM
kon: 429000 M⁻¹ s⁻¹
B8: A06 E06-hFc (S239C + S442C), mixed linkers (A06 - [G4S]1, E06 - [G4S]3) (Fc fusion)
chain 1: B3 chain 1
chain 2: B2 chain 2
notes: Biparatopic heterodimer; also called #706

Kd: 0.048 nM
kon: 271000 M⁻¹ s⁻¹
B9: D10 E06-hFc (S239C + S442C), [G4S]1 linkers (Fc fusion)
chain 1: B5 chain 1
chain 2: B4 chain 2
notes: Biparatopic heterodimer

Kd: < 0.01 nM
koff: < 1e-07 s⁻¹
kon: 430000 M⁻¹ s⁻¹
B10: D10 F05-hFc (S239C + S442C), [G4S]1 linkers (Fc fusion)
chain 1: B5 chain 1
chain 2: B3 chain 2 with V24A, L29F, S30G, K51R, E73D, D74N, S84N, A104V
notes: Biparatopic heterodimer; also called #669
